Data as given in patent US20210261648A1 (published 2021).
Residue numbers refer to the chain shown, from its start. Numbers in names are those of the source. Each block holds one binder with its values, some of them ahead of it.

Tests used:
[1] = target: T1, FcγRIIa type H extracellular domain with C-terminal His tag (human, UniProt P12318 34-217); assay: SPR (Biacore), relative amount of binding
T1 construct: extracellular domain; also called FcgRIIaH; FcγRIIa H
T1 sequence (looked up): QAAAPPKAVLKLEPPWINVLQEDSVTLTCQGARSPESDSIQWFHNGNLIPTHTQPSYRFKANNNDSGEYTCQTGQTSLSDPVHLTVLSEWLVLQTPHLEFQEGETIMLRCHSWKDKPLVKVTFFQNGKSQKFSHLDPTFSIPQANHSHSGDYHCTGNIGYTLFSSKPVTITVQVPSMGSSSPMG

[2] = target: T2, FcγRIIb extracellular domain with C-terminal His tag (human, UniProt P31994 43-217); assay: SPR (Biacore), relative amount of binding
T2 construct: extracellular domain; For crystals it was expressed with kifunensine and trimmed with Endo F1; also called FcgRIIb; FcγRIIb extracellular region
T2 sequence (looked up): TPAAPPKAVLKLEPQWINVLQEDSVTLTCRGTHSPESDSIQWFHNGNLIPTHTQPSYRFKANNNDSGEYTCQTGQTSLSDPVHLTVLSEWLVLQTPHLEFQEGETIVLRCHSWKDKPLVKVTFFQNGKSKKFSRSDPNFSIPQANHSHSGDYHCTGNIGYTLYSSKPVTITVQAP

[3] = target: T3, FcγRIIb extracellular domain with C-terminal His tag (human, UniProt P31994 43-217); assay: SPR; KD for FcγRIIaR divided by KD for FcγRIIb
T3 construct: extracellular domain; For crystallography it was expressed with kifunensine and trimmed with Endo F1; also called FcgRIIb; FcγRIIb extracellular region; not shown: His tag attached to the C terminus
T3 sequence (looked up): T2 sequence (looked up)

[4] = target: T4, FcγRIIa type R extracellular domain with C-terminal His tag (human, UniProt P12318 34-217); assay: SPR; KD of IL6R-B3/IL6R-L divided by KD of the variant
T4 chain: T1 sequence (looked up) with H134R

[5] = target: T3, FcγRIIb extracellular domain with …; assay: as above
[6] = target: T3, FcγRIIb extracellular domain with …; assay: SPR; KD for FcγRIIaH divided by KD for FcγRIIb
[7] = target: T5, FcγRIIa type H extracellular domain with C-terminal His tag (human, UniProt P12318 34-217); assay: SPR (Biacore), antibody captured, FcγR as analyte
T5 construct: extracellular domain; also called FcγRIIaH; FcgRIIaH; not shown: His tag attached to the C terminus
T5 sequence (looked up): T1 sequence (looked up)

[8] = target: T4, FcγRIIa type R extracellular domain …; assay: SPR (Biacore), antibody captured, FcγR as analyte
[9] = target: T6, FcγRIa extracellular domain with C-terminal His tag (human, UniProt P12314 16-292); assay: SPR (Biacore), antibody captured, FcγR as analyte
T6 construct: also called FcgRIa; not shown: His tag attached to the C terminus

[10] = target: T3, FcγRIIb extracellular domain with …; assay: SPR (Biacore), antibody captured, FcγR as analyte

T6 sequence (P12314 16-292): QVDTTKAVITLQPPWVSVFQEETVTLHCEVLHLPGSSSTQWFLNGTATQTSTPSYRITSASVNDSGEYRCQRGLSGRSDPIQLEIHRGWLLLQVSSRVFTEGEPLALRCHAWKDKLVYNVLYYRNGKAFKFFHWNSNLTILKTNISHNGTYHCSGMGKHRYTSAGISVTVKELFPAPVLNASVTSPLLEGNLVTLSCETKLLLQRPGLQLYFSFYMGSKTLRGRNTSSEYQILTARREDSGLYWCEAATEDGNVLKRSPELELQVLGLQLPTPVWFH

binding result [1]: binds | binding result [2]: binds
B1: B3 variant of GpH7-B3/GpL16-k0 with Leu at position 328 (EU numbering) substituted with Glu (antibody, human IgG1, kappa)
heavy: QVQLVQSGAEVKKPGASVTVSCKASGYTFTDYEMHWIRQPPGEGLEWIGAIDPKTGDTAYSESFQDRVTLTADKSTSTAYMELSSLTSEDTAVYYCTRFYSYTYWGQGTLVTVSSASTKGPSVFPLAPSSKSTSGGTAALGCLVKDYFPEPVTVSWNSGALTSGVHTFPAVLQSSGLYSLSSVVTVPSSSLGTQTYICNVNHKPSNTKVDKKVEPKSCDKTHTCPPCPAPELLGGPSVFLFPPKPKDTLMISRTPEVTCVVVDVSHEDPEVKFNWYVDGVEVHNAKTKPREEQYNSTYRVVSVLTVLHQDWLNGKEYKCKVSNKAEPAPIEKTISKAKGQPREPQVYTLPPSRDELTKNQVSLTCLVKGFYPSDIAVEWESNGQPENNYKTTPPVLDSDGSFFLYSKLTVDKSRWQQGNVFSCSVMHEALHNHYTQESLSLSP
light: DIVMTQSPLSLPVTPGEPASISCQASESLVHSNRNTYLHWYLQKPGQSPQLLIYKVSNRFSGVPDRFSGSGSGTDFTLKISRVEAEDVGVYYCSQNTHVPPTFGQGTKVEIERTVAAPSVFIFPPSDEQLKSGTASVVCLLNNFYPREAKVQWKVDNALQSGNSQESVTEQDSKDSTYSLSSTLTLSKADYEKHKVYACEVTHQGLSSPVTKSFNRGEC
notes: also called mutation B

KD(IIaR)/KD(IIb) [3]: 41.5 | KD(IIaR) of the parent polypeptide/KD(IIaR) of the altered polypeptide [4]: 4.8 | KD(IIb) of the parent polypeptide/KD(IIb) of the altered polypeptide [5]: 565 | KD(IIaH)/KD(IIb) [6]: 856 | Kd [7]: 4.7 µM | Kd [8]: 230 nM | Kd [9]: 2.4 nM | Kd [10]: 5.5 nM
B2: IL6R-BP565/IL6R-L (antibody, human IgG1, kappa)
heavy: QVQLQESGPGLVKPSETLSLTCAVSGHSISHDHAWSWVRQPPGEGLEWIGFISYSGITNYNPSLQGRVTISRDNSKNTLYLQMNSLRAEDTAVYYCARSLARTTAMDYWGEGTLVTVSSASTKGPSVFPLAPSSKSTSGGTAALGCLVKDYFPEPVTVSWNSGALTSGVHTFPAVLQSSGLYSLSSVVTVPSSSLGTQTYICNVNHKPSNTKVDKKVEPKSCDKTHTCPPCPAPDLLGDDSVFLFPPKPKDTLMISRTPEVTCVVVDVAEEDGEVKFNWYVDGVEVHNAKTKPREEQDNSTYRVVSVLTVLHQDWLNGKEYKCKVSNKALPRPIEKTISKAKGQPREPQVYTLPPSRDELTKNQVSLTCLVKGFYPSDIAVEWESNGQPENNYKTTPPVLDSDGSFFLYSKLTVDKSRWQQGNVFSCSVMHEALHNHYTQESLSLSP
light: not shown
notes: Anti-human IL-6R IgG1; alterations introduced into IL6R-B3 (G1d with K439E)
